Target: the molecule itself
Experiment: SDS-PAGE of unboiled and boiled samples

B1: cholera toxin B-subunit (CTB) (natural protein)
chain: TPQNITDLCAEYHNTQIYTLNDKIFSYTESLAGKREMAIITFKNGAIFQVEVPGSQHIDSQKKAIERMKDTLRIAYLTEAKVEKLCVWNNKTPHAIAAISMAN
stoichiometry N: 5
